Experimental data taken from patent US20080014203A1 (published 2008).
Where a chain is given by its changes, count along the chain named. One block for each molecule: values may come before it.

Legend:
[1] = biological target: IGF-I receptor (IGF-IR) on tumor cells (HT29, NCI H322M) or on 3T3 cells transfected with IGF-IR (human) (UniProt P08069); experiment: cell-based or functional assay
[2] = biological target: T1, IGF-I receptor (IGF-IR) on tumor cells (HT29, NCI H322M) or on 3T3 cells transfected with IGF-IR (human, UniProt P08069 31-736; P08069 741-1367, Natural receptor on cells: glycosylated, disulfide-linked alpha2-beta2 heterotetramer. One alpha and one beta chain are given.); experiment: displacement of I^125-labeled IGF-I from human tumor cells expressing IGF-IR (HT29, NCI H322M), scintillation counting
T1 construct: also called IGF-1R

[3] = biological target: T2, IGF-IR extracellular domain (human, UniProt P08069 31-935); experiment: SPR (BIACORE 3000); antibody captured by anti-human Fcγ antibody, IGF-IR extracellular domain in solution
T2 construct: extracellular domain; also called IGF-1R; insulin-like growth factor I receptor

Akt/PKB phosphorylation without IGF-I ligand (Western blot) [1]: > 5 nM
Molecule: αIR3 (antibody)

IC50 [2]: 0.3 nM
Kd [3]: 0.000695 nM
koff [3]: 1.03e-07 s⁻¹
kon [3]: 149000 M⁻¹ s⁻¹
B1: <IGF-1R>HUMAB Clone 18 (antibody 18) (antibody, V domains shown)
VH: QVELVESGGGVVQPGRSQRLSCAASGFTFSSYGMHWVRQAPGKGLEWVAIIWFDGSSTYYADSVRGRFTISRDNSKNTLYLQMNSLRAEDTAVYFCARELGRRYFDLWGRGTLVSVSS
VL: EIVLTQSPATLSLSPGERATLSCRASQSVSSYLAWYQQKPGQAPRLLIYDASKRATGIPARFSGSGSGTDFTLTISSLEPEDFAVYYCQQRSKWPPWTFGQGTKVESK

Kd [3]: 0.656 nM
koff [3]: 9.64e-05 s⁻¹
kon [3]: 147000 M⁻¹ s⁻¹
B2: <IGF-1R>HUMAB Clone 22 (antibody 22) (antibody, V domains shown)
VH: VQLVESGGGVVQPGRSLRLSCAASGFTFSSYGMHWVRQAPGKGLEWMAIIWFDGSSKYYGDSVKGRFTISRDNSKNTLYLQMNSLRADDTAVYYCARELGRRYFDLWGRGTLVTVSS
VL: B1 VL with K53N, S107I
